Assay results as given in patent US20220298237A1 (KEIO UNIVERSITY, published 2022).
Where “and” joins values, the source holds several entries; their conditions need not be identical. Identical values can stand only once. Values belong to the binder of their own block, whether it stands above or below them.

Key:
[1] = target: T1, mouse aquaporin 3 (AQP3) on cells (mouse, UniProt Q8R2N1 1-292); experiment: fluorescence binding assay on PAM212 cells, 10 µg/mL (FIG. 5B)
T1 construct: whole, on cells; Water channel membrane protein; also called mouse AQP3; AQP3 on PAM212 cells
T1 sequence (looked up): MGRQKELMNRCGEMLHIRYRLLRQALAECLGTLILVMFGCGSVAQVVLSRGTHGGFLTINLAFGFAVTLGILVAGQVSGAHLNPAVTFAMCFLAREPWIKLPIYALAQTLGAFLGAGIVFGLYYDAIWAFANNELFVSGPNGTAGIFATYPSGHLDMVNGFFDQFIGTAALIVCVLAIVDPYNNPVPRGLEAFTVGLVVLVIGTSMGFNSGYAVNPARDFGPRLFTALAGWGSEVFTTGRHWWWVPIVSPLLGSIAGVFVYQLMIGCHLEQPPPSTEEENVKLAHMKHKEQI
Description: (§1) PAM212 and macrophage cells were reacted with each anti AQP3 antibody (0.1, 1, or 10 μg/mL) at 4° C. for 1 hour. After washing the cells, a fluorescent-labeled secondary antibody was added and the reaction was allowed to occur additionally for 1 hour (4° C.). By measuring the fluorescence intensity, the binding property of each anti AQP3 antibody to cells was obtained.
The assay was also performed using PAM212 cells and antibodies A, B, C, D, E, F, G, H, and J at a concentration of 10 μg/mL. Binding of antibodies C, D, E, G, and J to PAM212 cells was statistically significant.

[2] = target: T2, mouse AQP3 in lysate of HEK293T cells overexpressing mouse AQP3 and a myc-biotinylated tag (mouse, UniProt Q8R2N1 1-292); experiment: ELISA on lysate of HEK293T cells overexpressing mouse AQP3 (FIG. 3)
T2 construct: Cell lysate used in ELISA; also called AQP3 containing cell lysate; not shown: myc-biotinylated tag
T2 sequence (looked up): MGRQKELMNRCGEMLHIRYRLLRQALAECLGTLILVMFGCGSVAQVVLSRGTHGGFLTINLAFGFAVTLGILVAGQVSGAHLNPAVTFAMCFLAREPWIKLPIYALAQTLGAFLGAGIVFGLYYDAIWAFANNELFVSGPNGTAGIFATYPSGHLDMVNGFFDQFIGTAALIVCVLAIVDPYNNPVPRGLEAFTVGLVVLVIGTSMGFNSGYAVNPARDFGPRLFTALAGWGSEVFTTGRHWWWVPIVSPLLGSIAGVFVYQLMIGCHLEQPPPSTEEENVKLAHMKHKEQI
From the text: Cell lysate from HEK293T cells overexpressing mouse AQP3 and a myc-biotinylated tag was used in an ELISA assay to measure the binding of antibodies A, B, C, D, E, F, G, H, J, and K to AQP3. Cell lysate from HEK293T cells overexpressing the myc-biotinylated tag but not AQP3 was used as control. […] C. Antibody binding to AQP3 expressing cells

[3] = target: T3, oligopeptide ATYPSGHLDM (SEQ ID NO: 1) (human and mouse); experiment: ELISA on the immunogen peptide (FIG. 2)
T3 construct: Synthetic peptide; positions 148 to 157 of the human AQP3 polypeptide, identical in mouse; also called peptide used for immunization; oligopeptide 5
T3 peptide: ATYPSGHLDM

[4] = target: T4, human aquaporin 3 (AQP3) on cells (human, UniProt Q92482 1-292); experiment: fluorescence binding assay on HaCaT cells, 10 µg/mL (FIG. 5C)
T4 construct: whole, on cells; Water channel membrane protein; also called human AQP3; AQP3 on HaCaT cells
T4 sequence (looked up): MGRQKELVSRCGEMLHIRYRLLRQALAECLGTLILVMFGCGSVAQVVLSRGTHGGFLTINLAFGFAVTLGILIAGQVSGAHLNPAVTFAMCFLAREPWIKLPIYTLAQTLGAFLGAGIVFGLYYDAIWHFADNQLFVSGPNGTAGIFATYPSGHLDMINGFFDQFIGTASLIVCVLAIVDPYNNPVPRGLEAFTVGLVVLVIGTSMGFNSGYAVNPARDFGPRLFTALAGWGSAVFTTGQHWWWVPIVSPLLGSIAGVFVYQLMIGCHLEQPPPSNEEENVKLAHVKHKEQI

[5] = target: T5, oligopeptide ATYPSGHL (SEQ ID NO: 102); experiment: ELISA on coated peptide
T5 construct: Synthetic peptide, part of Loop C of AQP3
T5 peptide: ATYPSGHL
Description: (§2) To determine the important amino acid residues of an epitope in Loop C involved in binding to specific AQP3 antibody clones, peptides of varying lengths were produced. The sequences of these peptides are shown in column 2 of Table 4.
(§3) The various peptides and AQP3 antibody clones were subjected to ELISA binding analyses. […] The microtiter wells (Costar 2690) were coated with 50 μL of each peptide at 4° C. overnight. The wells were washed 3 times with PBS and blocked with 100 μL of 1% BSA/PBS at 37° C. for 1 hour. Each antibody was adjusted to 1 μg/mL in 1% SBA/PBS as above then serially diluted 1:5 in 1% BSA/PBS. The blocker was discarded and the wells were incubated with 50 μL of antibodies at 37° C. for 1.5 hours. The wells were washed 3 times with PBS and mouse antibodies were detected with 50 μL of goat anti-mouse IgG (H+L) HRP conjugate (ThermoFisher 31438) (1:5,000 in 1% BSA/PBS) and rabbit antibodies were detected with 50 μL of goat anti-rabbit IgG (H+L) HRP conjugate (ThermoFisher 31462) (1:5,000 in 1% BSA/PBS) at 37° C. for 1 hour. The wells were washed 3 times with PBS and developed with 50 μL of HRP substrate at RT for 5 min then stopped with 50 μL of 2N sulfuric acid and binding was measured with a plate reader.

[6] = target: T6, oligopeptide TAGIFATYPSGHLDM (SEQ ID NO: 105); experiment: ELISA on coated peptide
T6 construct: Synthetic peptide, part of Loop C of AQP3
T6 peptide: TAGIFATYPSGHLDM
Description: as §2, §3

[7] = target: T7, oligopeptide GIFATYPSGHLDM (SEQ ID NO: 107); experiment: ELISA on coated peptide
T7 construct: Synthetic peptide, part of Loop C of AQP3
T7 peptide: GIFATYPSGHLDM
Description: as §2, §3

[8] = target: T3, oligopeptide ATYPSGHLDM (SEQ ID NO: 1); experiment: ELISA on coated peptide
Description: as §2, §3

[9] = target: T8, oligopeptide YPSGHLDM (SEQ ID NO: 97); experiment: ELISA on coated peptide
T8 construct: Synthetic peptide, part of Loop C of AQP3; first diluted in DMSO
T8 peptide: YPSGHLDM
Description: as §2, §3

[10] = target: T9, oligopeptide GHLDM (SEQ ID NO: 100); experiment: ELISA on coated peptide
T9 construct: Synthetic peptide, part of Loop C of AQP3
T9 peptide: GHLDM
Description: as §2, §3

[11] = target: T10, oligopeptide AGIFATYPSGHLDM (SEQ ID NO: 106); experiment: ELISA on coated peptide
T10 construct: Synthetic peptide, part of Loop C of AQP3
T10 peptide: AGIFATYPSGHLDM
Description: as §2, §3

[12] = target: T11, oligopeptide ATYPSGHLD (SEQ ID NO: 101); experiment: ELISA on coated peptide
T11 construct: Synthetic peptide, part of Loop C of AQP3
T11 peptide: ATYPSGHLD
Description: as §2, §3

[13] = target: T12, oligopeptide SGHLDM (SEQ ID NO: 99); experiment: ELISA on coated peptide
T12 construct: Synthetic peptide, part of Loop C of AQP3
T12 peptide: SGHLDM
Description: as §2, §3

[14] = target: T13, oligopeptide PSGHLDM (SEQ ID NO: 98); experiment: ELISA on coated peptide
T13 construct: Synthetic peptide, part of Loop C of AQP3
T13 peptide: PSGHLDM
Description: as §2, §3

[15] = target: T14, oligopeptide ATYPSGH (SEQ ID NO: 103); experiment: ELISA on coated peptide
T14 construct: Synthetic peptide, part of Loop C of AQP3
T14 peptide: ATYPSGH
Description: as §2, §3

[16] = target: T15, oligopeptide ATYPSG (SEQ ID NO: 104); experiment: ELISA on coated peptide
T15 construct: Synthetic peptide, part of Loop C of AQP3
T15 peptide: ATYPSG
Description: as §2, §3

[17] = target: T16, oligopeptide FATYPSGHLDM (SEQ ID NO: 109); experiment: ELISA on coated peptide
T16 construct: Synthetic peptide, part of Loop C of AQP3
T16 peptide: FATYPSGHLDM
Description: as §2, §3

[18] = target: T17, oligopeptide TYPSGHLDM (SEQ ID NO: 96); experiment: ELISA on coated peptide
T17 construct: Synthetic peptide, part of Loop C of AQP3
T17 peptide: TYPSGHLDM
Description: as §2, §3

[19] = target: T18, oligopeptide IFATYPSGHLDM (SEQ ID NO: 108); experiment: ELISA on coated peptide
T18 construct: Synthetic peptide, part of Loop C of AQP3
T18 peptide: IFATYPSGHLDM
Description: as §2, §3

[20] = target: T19, oligopeptide SGPNGTAGIFATYPS (SEQ ID NO: 94); experiment: ELISA on coated peptide
T19 construct: Synthetic peptide, part of Loop C of AQP3
T19 peptide: SGPNGTAGIFATYPS
Description: as §2, §3

[21] = target: T4, human aquaporin 3 (AQP3) on cells; experiment: fluorescence binding assay on HaCaT cells, 10 µg/mL
Description: as §1, with “HaCaT” for “PAM212 and macrophage”, “at concentrations of none, 1 ng/mL, 10 ng/mL, 100 ng/mL, 1 μg/mL,” for “(0.1, 1,”, “μg/mL” for “μg/mL)”, “(at 4°” for “(4°”

[22] = target: T3, oligopeptide ATYPSGHLDM (SEQ ID NO: 1); experiment: ELISA on peptide SEQ ID NO:1, IgG, 50% binding response (FIG. 16A)
[23] = target: T1, mouse aquaporin 3 (AQP3) on cells; experiment: fluorescence binding assay on PAM212 cells, 10 µg/mL
Description: as §1, with “PAM212” for “PAM212 and macrophage”, “at concentrations of none, 1 ng/mL, 10 ng/mL, 100 ng/mL, 1 μg/mL,” for “(0.1, 1,”, “μg/mL” for “μg/mL)”, “(at 4°” for “(4°”

[24] = target: T20, oligopeptide SRGTHGGFL (SEQ ID NO: 2); experiment: ELISA on peptide SEQ ID NO:2 (FIG. 16B)
T20 construct: Synthetic peptide of AQP3 Loop A; also called Loop A peptide; control peptide
T20 peptide: SRGTHGGFL

binding result [1]: binds
binding result [2]: binds
binding result [3]: binds
binding result [4]: binds
B1: Antibody E (antibody, mouse IgG2a, kappa, V domains shown)
VH: EVKLLESGAELVRPGASVTLSCKASGYTFTDYEMHWVKQTPVHGLEWIGGIDPESGGTGYNQKFKGKAILTADKSSSTAYMELRSLTSEDSAVYFCTRSGYYGSPLLDYWGQGTTLTVSS
VL: QIVLSQSPAIMSASLGERVTMTCTASSSVSSSYLHWYQQKPGSSPKLWIYSTSNLASGVPARFSGSGSGTSYSLTISSMEAEDAATYYCHQYHRSPPTFGAGTKLEIKR
notes: also called anti AQP3 antibody E; Antiboy E

binding signal (plate reader) [5]: 3.99
binding signal (plate reader) [6]: 4
binding signal (plate reader) [7]: 3.86
binding signal (plate reader) [8]: 3.97
binding signal (plate reader) [9]: 3.94
binding signal (plate reader) [10]: 0.06
binding signal (plate reader) [11]: 3.92
binding signal (plate reader) [12]: 3.91
binding signal (plate reader) [13]: 0.071
binding signal (plate reader) [14]: 1.56
binding signal (plate reader) [15]: 3.81
binding signal (plate reader) [16]: 1.77
binding signal (plate reader) [17]: 3.92
binding signal (plate reader) [18]: 3.92
binding signal (plate reader) [19]: 3.91
binding signal (plate reader) [20]: 2.99
fold fluorescence intensity over no antibody [21]: > 2 fold
EC50 [22]: 0.01 µg/mL and ~0.06 nM
fold fluorescence intensity over no antibody [23]: ≥ 2 fold
binding result [24]: no binding
B2: SC-F8 (IgG) (antibody, V domains shown)
VH: QTVKESGGRLVTPGGSLTLTCTVSRFSLSNYAMTWVRQAPGKGLEWIGIINNDGISSTWYASWVKGRFTISKTSTTMDLKMTSLTTEDTATYFCARGGTSGYDIWGPGTLVTVSL
VL: AQVLTQTPSPVSAAVGGTVTINCQSSPSVYKNYLSWYQQKPGQPPKLLIYGASTLASGVPSRFKGSGSGTQFTLTISDVQCDDAATYYCAGGYRGSSDIFAFGGGTEVVVK
notes: also called anti AQP3 antibody SC-F8
